Experimental data taken from patent US20210275685A1 (IMMUNOGEN, published 2021).

T1: His-tagged soluble human ADAM9 (human, UniProt Q13443 206-697)
T1 construct: also called shADAM9-His; huADAM9-His
T1 sequence: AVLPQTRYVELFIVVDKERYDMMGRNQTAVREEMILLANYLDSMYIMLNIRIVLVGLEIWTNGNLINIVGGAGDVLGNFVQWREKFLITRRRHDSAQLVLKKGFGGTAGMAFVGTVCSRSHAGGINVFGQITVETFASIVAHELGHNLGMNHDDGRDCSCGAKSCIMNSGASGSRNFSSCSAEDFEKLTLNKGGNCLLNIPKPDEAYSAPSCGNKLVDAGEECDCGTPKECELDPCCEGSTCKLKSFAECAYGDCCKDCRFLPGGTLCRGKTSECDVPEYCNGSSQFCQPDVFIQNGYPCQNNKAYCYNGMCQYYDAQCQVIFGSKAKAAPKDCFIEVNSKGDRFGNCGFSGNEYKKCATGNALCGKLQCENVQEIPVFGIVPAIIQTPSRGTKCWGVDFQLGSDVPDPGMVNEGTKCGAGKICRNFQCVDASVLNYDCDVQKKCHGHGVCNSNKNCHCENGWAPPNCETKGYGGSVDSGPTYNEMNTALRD


Tests used:
[1] = target: T2, huFcRn (Homo sapiens, UniProt P55899); assay: sensorgram (RU against time) at pH 6.0: FcRn immobilized, antibody injected at 25 nM and 100 nM; responses of about 60-70 RU and about 190 RU
T2 construct: construct not described; also called human neonatal Fc receptor
T2 sequence (P55899 24-297 limits assumed, form in doubt): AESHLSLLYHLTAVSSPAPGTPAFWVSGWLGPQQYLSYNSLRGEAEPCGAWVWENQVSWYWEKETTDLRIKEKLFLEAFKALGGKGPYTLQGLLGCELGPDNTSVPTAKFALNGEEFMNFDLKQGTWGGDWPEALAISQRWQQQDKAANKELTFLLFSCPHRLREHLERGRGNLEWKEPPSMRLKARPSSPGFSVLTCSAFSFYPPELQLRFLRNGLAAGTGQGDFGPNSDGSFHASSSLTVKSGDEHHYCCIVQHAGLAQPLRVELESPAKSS

[2] = target: T1, His-tagged soluble human ADAM9; assay: BIACORE, against antibodies without N54F (Table 3)
Source text: The relative binding affinity of the humanized/optimized antibodies hMAB-A (1.1), hMAB-A (2.2), hMAB-A (2.3), hMAB-A (3.3), hMAB-A (4.4) and the chimeric chMAB-A (having murine VH/VL Domains) to huADAM was investigated using BIACORE® analysis, in which His-tagged soluble human ADAM9 (“shADAM9-His,” containing an extracellular portion of human ADAM9 fused to a histidine-containing protein) was passed over a surface coated with immobilized antibody. Briefly, each antibody was captured on a Fab2 goat anti-human Fc surface and then incubated in the presence of different concentrations (6.25-100 nM) of the shADAM9-His protein. The kinetics of binding were determined via BIACORE® analysis binding (normalized 1:1 Langmuir binding model). Binding to cynoADAM9 was examined by FACS as described above and by ELISA.

| Binder | Kd [1] | fold increase in affinity [2] |
| --- | --- | --- |
| hMAB-A (2I.2) (antibody, human IgG1, kappa, also called MAB-A VH(2I); MAB-A VH(2I.2)) heavy: not shown light: DIVMTQSPDSLAVSLGERATISCKASQSVDYSGDSYMNWYQQKPGQPPKLLIYAASDLESGIPARFSGSGSGTDFTLTISSLEPEDFATYYCQQSHEDPFTFGQGTKLEIKRTVAAPSVFIFPPSDEQLKSGTASVVCLLNNFYPREAKVQWKVDNALQSGNSQESVTEQDSKDSTYSLSSTLTLSKADYEKHKVYACEVTHQGLSSPVTKSFNRGEC | 161 nM |  |
| hMAB-A (2.2) (antibody, V domains shown, also called parental hMAB-A (2.2); hMAB-A VH(2)/hMAB-A VL(2)) VH: EVQLVESGGGLVKPGGSLRLSCAASGFTFSSYWMHWVRQAPGKGLEWVGEIIPIFGHTNYNEKFKSRFTISLDNSKNTLYLQMGSLRAEDTAVYYCARGGYYYYGSRDYFDYWGQGTTVTVSS VL: DIVMTQSPDSLAVSLGERATISCKASQSVDYSGDSYMNWYQQKPGQPPKLLIYAASDLESGIPARFSGSGSGTDFTLTISSLEPEDFATYYCQQSHEDPFTFGQGTKLEIK |  | ~2 fold |
| hMAB-A (2.3) (antibody, V domains shown, human Fc; also called hMAB-A VH(2)/hMAB-A VL(3)) VH: EVQLVESGGGLVKPGGSLRLSCAASGFTFSSYWMHWVRQAPGKGLEWVGEIIPIFGHTNYNEKFKSRFTISLDNSKNTLYLQMGSLRAEDTAVYYCARGGYYYYGSRDYFDYWGQGTTVTVSS VL: DIVMTQSPDSLAVSLGERATISCRASQSVDYSGDSYMNWYQQKPGQPPKLLIYAASDLESGIPARFSGSGSGTDFTLTISSLEPEDFATYYCQQSHEDPFTFGQGTKLEIK |  | ~2 fold |
| hMAB-A (3.3) (antibody, V domains shown, human Fc; also called hMAB-A VH(3)/hMAB-A VL(3)) VH: EVQLVESGGGLVKPGGSLRLSCAASGFTFSSYWMHWVRQAPGKGLEWVGEIIPIFGHTNYNERFQGRFTISLDNSKNTLYLQMGSLRAEDTAVYYCARGGYYYYGSRDYFDYWGQGTTVTVSS VL: DIVMTQSPDSLAVSLGERATISCRASQSVDYSGDSYMNWYQQKPGQPPKLLIYAASDLESGIPARFSGSGSGTDFTLTISSLEPEDFATYYCQQSHEDPFTFGQGTKLEIK |  | ~2 fold |
